According to patent US20140080757A1 (ZEALAND PHARMA A S, published 2014):
Like-named read-outs stand apart in the source and are kept apart here. Numbered stars: 1 amine (or outer) side, 2 acyl side, 3 side chain; on linkers, the order of the positions; unused ones are H or OH. Square brackets hold non-standard residues; d marks the D form. Side chains are listed from the residue outwards. * marks the point of attachment. γGlu = O=C(O)[C@H](CCC(=O)[*:2])N[*:1]; Palmitoyl = CCCCCCCCCCCCCCCC(=O)*; Aib = CC(C)(N)C(=O)O

T1: endogenous GLP-1 receptor of a murine insulinoma cell line (murine, UniProt O35659 22-463)
T1 sequence (looked up): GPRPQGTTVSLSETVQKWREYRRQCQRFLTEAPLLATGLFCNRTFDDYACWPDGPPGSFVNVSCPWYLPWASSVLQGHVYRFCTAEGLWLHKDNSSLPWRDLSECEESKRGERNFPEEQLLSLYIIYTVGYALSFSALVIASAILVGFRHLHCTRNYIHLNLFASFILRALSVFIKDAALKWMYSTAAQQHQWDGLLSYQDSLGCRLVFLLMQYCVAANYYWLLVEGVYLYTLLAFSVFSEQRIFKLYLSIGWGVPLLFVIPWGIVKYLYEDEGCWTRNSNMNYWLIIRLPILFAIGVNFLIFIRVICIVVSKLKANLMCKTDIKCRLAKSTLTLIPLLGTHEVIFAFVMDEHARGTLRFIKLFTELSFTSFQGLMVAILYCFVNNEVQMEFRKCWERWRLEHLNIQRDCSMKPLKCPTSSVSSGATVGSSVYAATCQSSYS


Assays:
Test in all cases: cell-based or functional assay
[1] = target: T2, human glucagon receptor (Glucagon-R) (human, UniProt P47871 26-477)
[2] = target: T3, human glucagon-like peptide 1 receptor (GLP-1R) (human, UniProt P43220 24-463)
[3] = target: T1, endogenous GLP-1 receptor of a murine …
[4] = target: endogenous glucagon receptor of primary rat hepatocytes (rat, UniProt P30082 27-485)
[5] = target: T2, human glucagon receptor (Glucagon-R); remark: listed apart in the source
[6] = target: T3, human glucagon-like peptide 1 receptor …; remark: listed apart in the source

T2 sequence (P47871 26-477): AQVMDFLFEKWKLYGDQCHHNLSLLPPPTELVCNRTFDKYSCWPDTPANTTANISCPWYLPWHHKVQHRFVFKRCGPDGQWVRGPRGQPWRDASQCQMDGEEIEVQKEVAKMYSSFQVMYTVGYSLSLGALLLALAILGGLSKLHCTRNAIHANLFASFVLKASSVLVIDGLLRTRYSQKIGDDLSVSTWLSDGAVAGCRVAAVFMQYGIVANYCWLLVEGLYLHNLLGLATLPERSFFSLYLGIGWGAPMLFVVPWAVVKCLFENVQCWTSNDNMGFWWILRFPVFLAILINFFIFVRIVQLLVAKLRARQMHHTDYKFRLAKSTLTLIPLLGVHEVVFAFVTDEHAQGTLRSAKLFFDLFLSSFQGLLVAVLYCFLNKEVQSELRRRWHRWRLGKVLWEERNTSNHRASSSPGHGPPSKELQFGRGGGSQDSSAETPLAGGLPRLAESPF
endogenous glucagon receptor of primary rat hepatocytes, sequence (P30082 27-485): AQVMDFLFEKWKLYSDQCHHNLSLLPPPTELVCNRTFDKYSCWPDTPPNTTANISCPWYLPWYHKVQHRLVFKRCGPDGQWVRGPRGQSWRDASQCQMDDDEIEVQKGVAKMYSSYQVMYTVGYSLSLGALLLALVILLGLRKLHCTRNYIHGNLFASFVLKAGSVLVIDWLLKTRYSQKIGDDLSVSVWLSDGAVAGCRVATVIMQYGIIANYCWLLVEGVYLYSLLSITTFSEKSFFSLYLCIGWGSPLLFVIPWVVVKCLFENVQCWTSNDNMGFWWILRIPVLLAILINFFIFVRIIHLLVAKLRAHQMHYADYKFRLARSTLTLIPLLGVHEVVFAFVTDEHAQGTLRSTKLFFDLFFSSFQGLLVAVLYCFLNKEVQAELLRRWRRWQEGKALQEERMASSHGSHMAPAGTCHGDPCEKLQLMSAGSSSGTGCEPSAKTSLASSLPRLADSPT

Binder | EC50 hGCGR CHO-K1 [nM] (cAMP) [1] | EC50 hGLP-1R CHO-K1 [nM] (cAMP) [2] | Ratio GLP-1/Glucagon (EC50 hGLP-1R / EC50 hGCGR) [2] [ratio] | EC50 GLP-1R (murine insulinoma cells) [nM] (cAMP) [3] | EC50 GLP-1R Rat hepat. [nM] (inhibition of glycogen synthesis) [4] | EC50 hGCGR CHO-K1 [nM] (cAMP) [5] | EC50 hGLP-1R CHO-K1 [nM] (cAMP) [6] | Ratio GLP-1/Glucagon (EC50 hGLP-1R / EC50 hGCGR) [6] [ratio]
HXQGTFTSDYSKYLDEXAAKDFIEWLESA (D-Ser at position 2; Lys 17 K(Hexadecanoyl-isoGlu); C-terminal amide (-NH2)) [Compound 25] | 0.16 | 0.31 | 1.94 | 0.41 | 0.15 |  |  | 
H-H[Aib]QGTFTSDYSKYLDSK([γGlu-Palmitoyl])AAEDFVEWLESA-NH2 (SMILES CCCCCCCCCCCCCCCC(=O)N[C@@H](CCC(=O)NCCCC[C@H](NC(=O)[C@H](CO)NC(=O)[C@H](CC(=O)O)NC(=O)[C@H](CC(C)C)NC(=O)[C@H](Cc1ccc(O)cc1)NC(=O)[C@H](CCCCN)NC(=O)[C@H](CO)NC(=O)[C@H](Cc1ccc(O)cc1)NC(=O)[C@H](CC(=O)O)NC(=O)[C@H](CO)NC(=O)[C@@H](NC(=O)[C@H](Cc1ccccc1)NC(=O)[C@@H](NC(=O)CNC(=O)[C@H](CCC(N)=O)NC(=O)C(C)(C)NC(=O)[C@@H](N)Cc1c[nH]cn1)[C@@H](C)O)[C@@H](C)O)C(=O)N[C@@H](C)C(=O)N[C@@H](C)C(=O)N[C@@H](CCC(=O)O)C(=O)N[C@@H](CC(=O)O)C(=O)N[C@@H](Cc1ccccc1)C(=O)N[C@H](C(=O)N[C@@H](CCC(=O)O)C(=O)N[C@@H](Cc1c[nH]c2ccccc12)C(=O)N[C@@H](CC(C)C)C(=O)N[C@@H](CCC(=O)O)C(=O)N[C@@H](CO)C(=O)N[C@@H](C)C(N)=O)C(C)C)C(=O)O) [Compound 16] |  |  |  | 0.33 | 1.85 | 1.58 | 0.2 | 0.13
H-H[Aib]HGTFTSDYSKYLESK([γGlu-Palmitoyl])AAEEFIEWLESA-OH (SMILES CCCCCCCCCCCCCCCC(=O)N[C@@H](CCC(=O)NCCCC[C@H](NC(=O)[C@H](CO)NC(=O)[C@H](CCC(=O)O)NC(=O)[C@H](CC(C)C)NC(=O)[C@H](Cc1ccc(O)cc1)NC(=O)[C@H](CCCCN)NC(=O)[C@H](CO)NC(=O)[C@H](Cc1ccc(O)cc1)NC(=O)[C@H](CC(=O)O)NC(=O)[C@H](CO)NC(=O)[C@@H](NC(=O)[C@H](Cc1ccccc1)NC(=O)[C@@H](NC(=O)CNC(=O)[C@H](Cc1c[nH]cn1)NC(=O)C(C)(C)NC(=O)[C@@H](N)Cc1c[nH]cn1)[C@@H](C)O)[C@@H](C)O)C(=O)N[C@@H](C)C(=O)N[C@@H](C)C(=O)N[C@@H](CCC(=O)O)C(=O)N[C@@H](CCC(=O)O)C(=O)N[C@@H](Cc1ccccc1)C(=O)N[C@H](C(=O)N[C@@H](CCC(=O)O)C(=O)N[C@@H](Cc1c[nH]c2ccccc12)C(=O)N[C@@H](CC(C)C)C(=O)N[C@@H](CCC(=O)O)C(=O)N[C@@H](CO)C(=O)N[C@@H](C)C(=O)O)[C@@H](C)CC)C(=O)O) [Compound 17] | 0.05 | 0.23 | 4.6 | 0.89 | 0.18 |  |  | 
H-HSHGTFTSDYSKYLEEK([γGlu-Palmitoyl])AAHEFIEWLESA-OH (SMILES CCCCCCCCCCCCCCCC(=O)N[C@@H](CCC(=O)NCCCC[C@H](NC(=O)[C@H](CCC(=O)O)NC(=O)[C@H](CCC(=O)O)NC(=O)[C@H](CC(C)C)NC(=O)[C@H](Cc1ccc(O)cc1)NC(=O)[C@H](CCCCN)NC(=O)[C@H](CO)NC(=O)[C@H](Cc1ccc(O)cc1)NC(=O)[C@H](CC(=O)O)NC(=O)[C@H](CO)NC(=O)[C@@H](NC(=O)[C@H](Cc1ccccc1)NC(=O)[C@@H](NC(=O)CNC(=O)[C@H](Cc1c[nH]cn1)NC(=O)[C@H](CO)NC(=O)[C@@H](N)Cc1c[nH]cn1)[C@@H](C)O)[C@@H](C)O)C(=O)N[C@@H](C)C(=O)N[C@@H](C)C(=O)N[C@@H](Cc1c[nH]cn1)C(=O)N[C@@H](CCC(=O)O)C(=O)N[C@@H](Cc1ccccc1)C(=O)N[C@H](C(=O)N[C@@H](CCC(=O)O)C(=O)N[C@@H](Cc1c[nH]c2ccccc12)C(=O)N[C@@H](CC(C)C)C(=O)N[C@@H](CCC(=O)O)C(=O)N[C@@H](CO)C(=O)N[C@@H](C)C(=O)O)[C@@H](C)CC)C(=O)O) [Compound 18] | 0.14 | 0.87 | 6.2 | 0.99 | 0.18 |  |  | 
H-H[Aib]HGTFTSDYSKYLEEK([γGlu-Palmitoyl])AAHEFVEWLESA-NH2 (SMILES CCCCCCCCCCCCCCCC(=O)N[C@@H](CCC(=O)NCCCC[C@H](NC(=O)[C@H](CCC(=O)O)NC(=O)[C@H](CCC(=O)O)NC(=O)[C@H](CC(C)C)NC(=O)[C@H](Cc1ccc(O)cc1)NC(=O)[C@H](CCCCN)NC(=O)[C@H](CO)NC(=O)[C@H](Cc1ccc(O)cc1)NC(=O)[C@H](CC(=O)O)NC(=O)[C@H](CO)NC(=O)[C@@H](NC(=O)[C@H](Cc1ccccc1)NC(=O)[C@@H](NC(=O)CNC(=O)[C@H](Cc1c[nH]cn1)NC(=O)C(C)(C)NC(=O)[C@@H](N)Cc1c[nH]cn1)[C@@H](C)O)[C@@H](C)O)C(=O)N[C@@H](C)C(=O)N[C@@H](C)C(=O)N[C@@H](Cc1c[nH]cn1)C(=O)N[C@@H](CCC(=O)O)C(=O)N[C@@H](Cc1ccccc1)C(=O)N[C@H](C(=O)N[C@@H](CCC(=O)O)C(=O)N[C@@H](Cc1c[nH]c2ccccc12)C(=O)N[C@@H](CC(C)C)C(=O)N[C@@H](CCC(=O)O)C(=O)N[C@@H](CO)C(=O)N[C@@H](C)C(N)=O)C(C)C)C(=O)O) [Compound 19] | 0.08 | 0.27 | 3.38 | 0.33 | 0.06 |  |  | 
HXQGTFTSDYSKYLEEXAAKDFIEWLESA (Aib at position 2; Lys 17 K(Hexadecanoyl-isoGlu); C-terminal amide (-NH2)) [Compound 20] | 0.68 | 0.23 | 0.34 | 0.27 | 0.39 |  |  | 
H-H[Aib]QGTFTSDYSKYLESK([γGlu-Palmitoyl])AAEDFIEWLESA-NH2 (SMILES CCCCCCCCCCCCCCCC(=O)N[C@@H](CCC(=O)NCCCC[C@H](NC(=O)[C@H](CO)NC(=O)[C@H](CCC(=O)O)NC(=O)[C@H](CC(C)C)NC(=O)[C@H](Cc1ccc(O)cc1)NC(=O)[C@H](CCCCN)NC(=O)[C@H](CO)NC(=O)[C@H](Cc1ccc(O)cc1)NC(=O)[C@H](CC(=O)O)NC(=O)[C@H](CO)NC(=O)[C@@H](NC(=O)[C@H](Cc1ccccc1)NC(=O)[C@@H](NC(=O)CNC(=O)[C@H](CCC(N)=O)NC(=O)C(C)(C)NC(=O)[C@@H](N)Cc1c[nH]cn1)[C@@H](C)O)[C@@H](C)O)C(=O)N[C@@H](C)C(=O)N[C@@H](C)C(=O)N[C@@H](CCC(=O)O)C(=O)N[C@@H](CC(=O)O)C(=O)N[C@@H](Cc1ccccc1)C(=O)N[C@H](C(=O)N[C@@H](CCC(=O)O)C(=O)N[C@@H](Cc1c[nH]c2ccccc12)C(=O)N[C@@H](CC(C)C)C(=O)N[C@@H](CCC(=O)O)C(=O)N[C@@H](CO)C(=O)N[C@@H](C)C(N)=O)[C@@H](C)CC)C(=O)O) [Compound 21] | 1.32 | 0.12 | 0.09 | 0.3 | 3.4 |  |  | 
H-HSQGTFTSDYSKYLEEK([γGlu-Palmitoyl])AAKDFIEWLESA-NH2 (SMILES CCCCCCCCCCCCCCCC(=O)N[C@@H](CCC(=O)NCCCC[C@H](NC(=O)[C@H](CCC(=O)O)NC(=O)[C@H](CCC(=O)O)NC(=O)[C@H](CC(C)C)NC(=O)[C@H](Cc1ccc(O)cc1)NC(=O)[C@H](CCCCN)NC(=O)[C@H](CO)NC(=O)[C@H](Cc1ccc(O)cc1)NC(=O)[C@H](CC(=O)O)NC(=O)[C@H](CO)NC(=O)[C@@H](NC(=O)[C@H](Cc1ccccc1)NC(=O)[C@@H](NC(=O)CNC(=O)[C@H](CCC(N)=O)NC(=O)[C@H](CO)NC(=O)[C@@H](N)Cc1c[nH]cn1)[C@@H](C)O)[C@@H](C)O)C(=O)N[C@@H](C)C(=O)N[C@@H](C)C(=O)N[C@@H](CCCCN)C(=O)N[C@@H](CC(=O)O)C(=O)N[C@@H](Cc1ccccc1)C(=O)N[C@H](C(=O)N[C@@H](CCC(=O)O)C(=O)N[C@@H](Cc1c[nH]c2ccccc12)C(=O)N[C@@H](CC(C)C)C(=O)N[C@@H](CCC(=O)O)C(=O)N[C@@H](CO)C(=O)N[C@@H](C)C(N)=O)[C@@H](C)CC)C(=O)O) [Compound 22] | 0.1 | 0.24 | 2.4 | 0.35 | 0.28 |  |  | 
